Data as given in paper PMC5493754, “Myosin 7 and its adaptors link cadherins to actin” (Nature Communications, 2017).
Substitutions are numbered along the chain they refer to. Names and notes keep the numbering of the source.

T1: YFP-Full length (FL)-harmonin (harmonin-a1) (human, UniProt Q9Y6N9-1 1-552)
T1 construct: Harmonin-a1 (USH1C), human, residues 1-552 of UniProt Q9Y6N9-1; also called ^YFPFL (isoA); ^YFPFL; source: E. coli BL21 (DE3) Rosetta, purified (Glutathione Sepharose 4B, size-exclusion chromatography)
T1 sequence (looked up): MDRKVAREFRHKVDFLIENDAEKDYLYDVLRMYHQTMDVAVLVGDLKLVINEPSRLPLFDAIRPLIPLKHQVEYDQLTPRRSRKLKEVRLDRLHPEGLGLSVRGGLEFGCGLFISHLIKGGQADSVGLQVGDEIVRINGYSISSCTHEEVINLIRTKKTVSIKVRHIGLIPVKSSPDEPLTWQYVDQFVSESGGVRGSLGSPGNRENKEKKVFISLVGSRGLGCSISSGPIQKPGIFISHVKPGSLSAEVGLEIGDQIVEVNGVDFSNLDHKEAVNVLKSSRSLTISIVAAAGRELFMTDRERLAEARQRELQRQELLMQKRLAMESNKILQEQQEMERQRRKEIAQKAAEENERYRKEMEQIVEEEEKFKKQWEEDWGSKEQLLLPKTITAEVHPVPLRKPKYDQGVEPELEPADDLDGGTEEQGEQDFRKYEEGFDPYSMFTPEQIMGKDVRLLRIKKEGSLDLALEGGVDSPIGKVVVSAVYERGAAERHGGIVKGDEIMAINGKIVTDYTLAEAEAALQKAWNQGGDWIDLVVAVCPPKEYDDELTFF

T2: YFP-Myosin 7b MF2 (human, UniProt Q6PIF6 1605-2116)
T2 construct: Myosin 7b, human, MF2, residues 1605-2116 of UniProt Q6PIF6; pET14-YFP vector; also called ^YFPM7b MF2; source: E. coli (BL21-AI, BL21 (DE3) Rosetta or BL21-Gold (DE3)), purified (Histrap, CaptoQ, gel filtration)
T2 sequence (looked up): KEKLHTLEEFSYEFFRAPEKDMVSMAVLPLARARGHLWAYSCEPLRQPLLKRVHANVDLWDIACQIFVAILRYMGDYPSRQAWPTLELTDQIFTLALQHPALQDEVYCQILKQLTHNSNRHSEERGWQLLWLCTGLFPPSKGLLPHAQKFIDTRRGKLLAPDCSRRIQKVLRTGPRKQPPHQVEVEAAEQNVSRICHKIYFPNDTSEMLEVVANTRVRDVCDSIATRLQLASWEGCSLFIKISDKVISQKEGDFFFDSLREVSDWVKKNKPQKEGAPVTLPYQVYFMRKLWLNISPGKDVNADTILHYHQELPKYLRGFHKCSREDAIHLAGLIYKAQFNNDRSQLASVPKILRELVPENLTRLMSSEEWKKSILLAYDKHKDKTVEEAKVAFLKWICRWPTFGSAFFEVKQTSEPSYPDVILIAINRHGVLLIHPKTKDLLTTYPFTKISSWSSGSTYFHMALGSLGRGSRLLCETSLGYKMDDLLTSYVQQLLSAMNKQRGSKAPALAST

B1: Myosin 7b MF2 (domain or fragment, human, UniProt Q6PIF6 1605-2116, looked up)
chain: T2 sequence (looked up)
notes: also called M7b MF2; Myo7b MF2; source: E. coli (BL21-AI, BL21 (DE3) Rosetta or BL21-Gold (DE3)), purified (Histrap, CaptoQ, gel filtration)
B2: YFP-Harmonin-a PDZ3c E469A (domain or fragment, human, UniProt Q9Y6N9-1 428-552, looked up)
chain: QDFRKYEEGFDPYSMFTPEQIMGKDVRLLRIKKEGSLDLALAGGVDSPIGKVVVSAVYERGAAERHGGIVKGDEIMAINGKIVTDYTLAEAEAALQKAWNQGGDWIDLVVAVCPPKEYDDELTFF
notes: Harmonin-a1 (USH1C), human, residues 428-552 of UniProt Q9Y6N9-1; also called ^YFPPDZ3c (isoA) E469A; PDZ3 E469A; source: E. coli BL21 (DE3) Rosetta, purified similarly as wild type
B3: YFP-Harmonin-a PDZ3c E469A-I476W (domain or fragment, human, UniProt Q9Y6N9-1 428-552, looked up)
chain: B2 chain with I49W
notes: Harmonin-a1 (USH1C), human, residues 428-552 of UniProt Q9Y6N9-1; also called ^YFPPDZ3c (isoA) E469A-I476W; source: E. coli BL21 (DE3) Rosetta, purified similarly as wild type
B4: YFP-Harmonin-a PDZ3c I476W (domain or fragment, human, UniProt Q9Y6N9-1 428-552, looked up)
chain: B2 chain with A42E, I49W
notes: Harmonin-a1 (USH1C), human, residues 428-552 of UniProt Q9Y6N9-1; also called ^YFPPDZ3c (isoA) I476W; source: E. coli BL21 (DE3) Rosetta, purified similarly as wild type
B5: Harmonin NPDZ1.PDZ2 (domain or fragment, human, UniProt Q9Y6N9-1 1-301, looked up)
chain: MDRKVAREFRHKVDFLIENDAEKDYLYDVLRMYHQTMDVAVLVGDLKLVINEPSRLPLFDAIRPLIPLKHQVEYDQLTPRRSRKLKEVRLDRLHPEGLGLSVRGGLEFGCGLFISHLIKGGQADSVGLQVGDEIVRINGYSISSCTHEEVINLIRTKKTVSIKVRHIGLIPVKSSPDEPLTWQYVDQFVSESGGVRGSLGSPGNRENKEKKVFISLVGSRGLGCSISSGPIQKPGIFISHVKPGSLSAEVGLEIGDQIVEVNGVDFSNLDHKEAVNVLKSSRSLTISIVAAAGRELFMTDR
notes: Harmonin-a1 (USH1C), human, N-terminal domain, PDZ1 and PDZ2, residues 1-301 of UniProt Q9Y6N9-1; source: E. coli BL21 (DE3) Rosetta, purified (Glutathione Sepharose 4B, size-exclusion chromatography)
B6: Myosin 7a MF2 (domain or fragment, human, UniProt Q13402-1 1702-2215, looked up)
chain: TAEPEVRAKPYTLEEFSYDYFRPPPKHTLSRVMVSKARGKDRLWSHTREPLKQALLKKLLGSEELSQEACLAFIAVLKYMGDYPSKRTRSVNELTDQIFEGPLKAEPLKDEAYVQILKQLTDNHIRYSEERGWELLWLCTGLFPPSNILLPHVQRFLQSRKHCPLAIDCLQRLQKALRNGSRKYPPHLVEVEAIQHKTTQIFHKVYFPDDTDEAFEVESSTKAKDFCQNIATRLLLKSSEGFSLFVKIADKVLSVPENDFFFDFVRHLTDWIKKARPIKDGIVPSLTYQVFFMKKLWTTTVPGKDPMADSIFHYYQELPKYLRGYHKCTREEVLQLGALIYRVKFEEDKSYFPSIPKLLRELVPQDLIRQVSPDDWKRSIVAYFNKHAGKSKEEAKLAFLKLIFKWPTFGSAFFEVKQTTEPNFPEILLIAINKYGVSLIDPKTKDILTTHPFTKISNWSSGNTYFHITIGNLVRGSKLLCETSLGYKMDDLLTSYISQMLTAMSKQRGSRSGK
notes: Myosin 7a, human, C-terminal MyTH4-FERM domain (MF2), residues 1702-2215 of UniProt Q13402-1; Thrombin site of the vector replaced by an SSG linker; also called M7a MF2; Myo7a MF2; source: E. coli (BL21-AI, BL21 (DE3) Rosetta or BL21-Gold (DE3)), purified (Histrap, CaptoQ, gel filtration)
B7: Harmonin-a PDZ3c D546R (domain or fragment, human, UniProt Q9Y6N9-1 428-552, looked up)
chain: B2 chain with A42E, D119R
notes: Harmonin-a1 (USH1C), human, residues 428-552 of UniProt Q9Y6N9-1; also called PDZ3c (isoA) D546R; source: E. coli BL21 (DE3) Rosetta, purified similarly as wild type

Key:
Conditions in all cases: both partners purified
[1] = target: T1, YFP-Full length (FL)-harmonin …; test: MST; as a1 but 150 mM NaCl (for FL-Harmonin-a); YFP-fused partner constant at 100 nM, non-fluorescent protein titrated
Myosin 7b MF2 = target: B1; test: MST; YFP-fused partner constant at 100 nM, non-fluorescent protein titrated (16 two-fold dilutions); 20 mM Hepes pH 7.0, 100 mM NaCl, 1 mM EGTA, 0.5 mM TCEP, 0.05% Tween 20; Monolith NT.115
Myosin 7a MF2 = target: B6; test: as above
[2] = target: T1, YFP-Full length (FL)-harmonin …; test: MST; as a1 but 150 mM NaCl (for FL-Harmonin-a); YFP-fused partner constant at 100 nM, non-fluorescent protein titrated; remark: listed apart in the source
YFP-Myosin 7b MF2 = target: T2, YFP-Myosin 7b MF2; test: MST; YFP-fused partner constant at 100 nM, non-fluorescent protein titrated (16 two-fold dilutions); 20 mM Hepes pH 7.0, 100 mM NaCl, 1 mM EGTA, 0.5 mM TCEP, 0.05% Tween 20; Monolith NT.115

Kd (Myosin 7b MF2)	Kd (Myosin 7a MF2)	Binder	also measured
		B1	Kd [1]: 2050 ± 790 nM
6.11 ± 0.44 µM	5.4 ± 1.5 µM	B2	
38.1 ± 4.9 µM	70.4 ± 7.2 µM	B3	
18.1 ± 1.4 µM	17.8 ± 1.1 µM	B4	
		B5	Kd [2]: 3.4 ± 0.1 µM
		B6	Kd [1]: 2360 nM
		B7	Kd (YFP-Myosin 7b MF2): > 300 µM
